Biological target: recombinant stabilized HA trimer of H1N1 virus A/Solomon Islands/3/2006 (H1 SI06) (influenza A virus A/Solomon Islands/3/2006 (H1N1))
Assay: cryo-EM structure

Q: With “recombinant stabilized HA trimer of H1N1 virus A/Solomon Islands/3/2006 (H1 SI06) (natural protein)” as the substance, how does the stoichiometry N read?
A: 3

From PMC9772109
